Patent publication US9175305B2, “Mutant hydroxyphenylpyruvate dioxygenase polypeptides and methods of use” (Syngenta Participations AG, priority 2009, dated 2015)

Assay: Km and kcat of expressed HPPDs (HPLC/UV quantitation of homogentisate)
Assay type: biochemical, Avena sativa
Details: for Km / kcat: HPPDs expressed in extracts, 25° C., pH 7.0; for kcat: one active-site per dimer assumed; for Rate: kcat relative to non-mutated HPPD SEQ ID NO:14: for V217I, L271I, L271V, V258M, A326R estimated from initial rates in cell extracts, pH 7.0, 25° C., 120 μM HPP
Experimental: The assay solution was transferred to Chromacol 03-CVG HPLC vials, sealed and the amount of homogentisate formed in a 40 μl aliquot determined by injection onto a reverse phase Aqua C18 5μ 75×4.6 mm HPLC column running 5.5% acetonitrile 0.1% TFA (Buffer A) at 1.5 ml/min. The column was eluted at 1.5 ml/minute using a 2 minute wash in buffer A, followed by a 2 minute wash in a 30/70 mixture of buffer A and 100% Acetonitrile, and a further 3.5 minute wash in buffer A. The elution of homogentisate was monitored by UV at 292 nm and the amount formed in each reaction quantified by comparison with a standard calibration curve.
Km and Vmax values were determined (for example FIG. 1) using a non linear least squares fit using Grafit 4™ software (Erithacus Software, Middlesex, UK). Kcat values were determined by dividing the maximum rate, Vmax expressed in nmol/second by the number of nmoles of HPPD enzyme (based on the concentration determined by active-site titration).
Experiments were carried out as described for Table 4. ‘Sulc’ denotes sulcotrione and ‘nd’ means ‘no data’. For V217I, L271I, L271V, V258M and A326R, the relative values of kcat were estimated from comparisons of the initial rates in cell extracts of similarly prepared and expressed HPPDs in conventional enzyme activity assays at pH 7.0, 25° C. and at a substrate concentration of 120 μM HPP.

Row | Molecule | Km | kcat | Rate: kcat relative to non-mutated HPPD SEQ ID NO:14
1 | SEQ ID #24: SEQ ID NO:14 with substitution of M for L within the sequence motif G(I,V)LVDRD (protein, listed as Avena sativa) MPPTPATATGAAAAAVTPEHAARSFPRVVRVNPRSDRFPVLSFHHVELWCADAASAAGRFSFALGAPLAARSDLSTGNSAHASLLLRSGALAFLFTAPYAPPPQEAATAATASIPSFSADAARTFAAAHGLAVRSVGVRVADAAEAFRVSVAGGARPAFAPADLGHGFGLAEVELYGDVVLRFVSYPDETDLPFLPGFERVSSPGAVDYGLTRFDHVVGNVPEMAPVIDYMKGFLGFHEFAEFTAEDVGTTESGLNSVVLANNSEAVLLPLNEPVHGTKRRSQIQTYLEYHGGPGVQHIALASNDVLRTLREMRARTPMGGFEFMAPPQAKYYEGVRRIAGDVLSEEQIKECQELGVMVDRDDQGVLLQIFTKPVGDRPTFFLEMIQRIGCMEKDEVGQEYQKGGCGGFGKGNFSELFKSIEDYEKSLEVKQSVVAQKS | 4.74 µM | 4.35 s⁻¹ | –
2 | V217I: V217I mutant of HPPD SEQ ID NO:14 (protein, mutant HPPD polypeptide) MPPTPATATGAAAAAVTPEHAARSFPRVVRVNPRSDRFPVLSFHHVELWCADAASAAGRFSFALGAPLAARSDLSTGNSAHASLLLRSGALAFLFTAPYAPPPQEAATAATASIPSFSADAARTFAAAHGLAVRSVGVRVADAAEAFRVSVAGGARPAFAPADLGHGFGLAEVELYGDVVLRFVSYPDETDLPFLPGFERVSSPGAVDYGLTRFDHIVGNVPEMAPVIDYMKGFLGFHEFAEFTAEDVGTTESGLNSVVLANNSEAVLLPLNEPVHGTKRRSQIQTYLEYHGGPGVQHIALASNDVLRTLREMRARTPMGGFEFMAPPQAKYYEGVRRIAGDVLSEEQIKECQELGVLVDRDDQGVLLQIFTKPVGDRPTFFLEMIQRIGCMEKDEVGQEYQKGGCGGFGKGNFSELFKSIEDYEKSLEVKQSVVAQKS | – | – | 1.1
3 | SEQ ID #26: SEQ ID NO:14 with M for L within G(I,V)LVDR and M for L within SGLNS (protein, listed as Avena sativa) MPPTPATATGAAAAAVTPEHAARSFPRVVRVNPRSDRFPVLSFHHVELWCADAASAAGRFSFALGAPLAARSDLSTGNSAHASLLLRSGALAFLFTAPYAPPPQEAATAATASIPSFSADAARTFAAAHGLAVRSVGVRVADAAEAFRVSVAGGARPAFAPADLGHGFGLAEVELYGDVVLRFVSYPDETDLPFLPGFERVSSPGAVDYGLTRFDHVVGNVPEMAPVIDYMKGFLGFHEFAEFTAEDVGTTESGMNSVVLANNSEAVLLPLNEPVHGTKRRSQIQTYLEYHGGPGVQHIALASNDVLRTLREMRARTPMGGFEFMAPPQAKYYEGVRRIAGDVLSEEQIKECQELGVMVDRDDQGVLLQIFTKPVGDRPTFFLEMIQRIGCMEKDEVGQEYQKGGCGGFGKGNFSELFKSIEDYEKSLEVKQSVVAQKS | 10.6 µM | 4.05 s⁻¹ | –
4 | SEQ ID #18: SEQ ID NO:14 with substitution of T for I within the sequence motif SQIQTY (protein, listed as Avena sativa) MPPTPATATGAAAAAVTPEHAARSFPRVVRVNPRSDRFPVLSFHHVELWCADAASAAGRFSFALGAPLAARSDLSTGNSAHASLLLRSGALAFLFTAPYAPPPQEAATAATASIPSFSADAARTFAAAHGLAVRSVGVRVADAAEAFRVSVAGGARPAFAPADLGHGFGLAEVELYGDVVLRFVSYPDETDLPFLPGFERVSSPGAVDYGLTRFDHVVGNVPEMAPVIDYMKGFLGFHEFAEFTAEDVGTTESGLNSVVLANNSEAVLLPLNEPVHGTKRRSQTQTYLEYHGGPGVQHIALASNDVLRTLREMRARTPMGGFEFMAPPQAKYYEGVRRIAGDVLSEEQIKECQELGVLVDRDDQGVLLQIFTKPVGDRPTFFLEMIQRIGCMEKDEVGQEYQKGGCGGFGKGNFSELFKSIEDYEKSLEVKQSVVAQKS | 36 µM | 17.94 s⁻¹ | –
5 | SEQ ID #22: SEQ ID NO:14 with substitution of M for L within the sequence motif SGLNS (protein, listed as Avena sativa) MPPTPATATGAAAAAVTPEHAARSFPRVVRVNPRSDRFPVLSFHHVELWCADAASAAGRFSFALGAPLAARSDLSTGNSAHASLLLRSGALAFLFTAPYAPPPQEAATAATASIPSFSADAARTFAAAHGLAVRSVGVRVADAAEAFRVSVAGGARPAFAPADLGHGFGLAEVELYGDVVLRFVSYPDETDLPFLPGFERVSSPGAVDYGLTRFDHVVGNVPEMAPVIDYMKGFLGFHEFAEFTAEDVGTTESGMNSVVLANNSEAVLLPLNEPVHGTKRRSQIQTYLEYHGGPGVQHIALASNDVLRTLREMRARTPMGGFEFMAPPQAKYYEGVRRIAGDVLSEEQIKECQELGVLVDRDDQGVLLQIFTKPVGDRPTFFLEMIQRIGCMEKDEVGQEYQKGGCGGFGKGNFSELFKSIEDYEKSLEVKQSVVAQKS | 12.4 µM | 5.79 s⁻¹ | –
6 | SEQ ID #21: SEQ ID NO:14 with substitution of V for I within the sequence motif SQIQTY (protein, listed as Avena sativa) MPPTPATATGAAAAAVTPEHAARSFPRVVRVNPRSDRFPVLSFHHVELWCADAASAAGRFSFALGAPLAARSDLSTGNSAHASLLLRSGALAFLFTAPYAPPPQEAATAATASIPSFSADAARTFAAAHGLAVRSVGVRVADAAEAFRVSVAGGARPAFAPADLGHGFGLAEVELYGDVVLRFVSYPDETDLPFLPGFERVSSPGAVDYGLTRFDHVVGNVPEMAPVIDYMKGFLGFHEFAEFTAEDVGTTESGLNSVVLANNSEAVLLPLNEPVHGTKRRSQVQTYLEYHGGPGVQHIALASNDVLRTLREMRARTPMGGFEFMAPPQAKYYEGVRRIAGDVLSEEQIKECQELGVLVDRDDQGVLLQIFTKPVGDRPTFFLEMIQRIGCMEKDEVGQEYQKGGCGGFGKGNFSELFKSIEDYEKSLEVKQSVVAQKS | 5.98 µM | 5.47 s⁻¹ | –
7 | SEQ ID #14: HPPD derived from Avena sativa; single deletion variant of the Avena sativa HPPD (protein, mutant HPPD polypeptide) MPPTPATATGAAAAAVTPEHAARSFPRVVRVNPRSDRFPVLSFHHVELWCADAASAAGRFSFALGAPLAARSDLSTGNSAHASLLLRSGALAFLFTAPYAPPPQEAATAATASIPSFSADAARTFAAAHGLAVRSVGVRVADAAEAFRVSVAGGARPAFAPADLGHGFGLAEVELYGDVVLRFVSYPDETDLPFLPGFERVSSPGAVDYGLTRFDHVVGNVPEMAPVIDYMKGFLGFHEFAEFTAEDVGTTESGLNSVVLANNSEAVLLPLNEPVHGTKRRSQIQTYLEYHGGPGVQHIALASNDVLRTLREMRARTPMGGFEFMAPPQAKYYEGVRRIAGDVLSEEQIKECQELGVLVDRDDQGVLLQIFTKPVGDRPTFFLEMIQRIGCMEKDEVGQEYQKGGCGGFGKGNFSELFKSIEDYEKSLEVKQSVVAQKS | 5.38 µM | 6.46 s⁻¹ | 1
